# Laboratory results taken from publication doi:10.1101/2023.06.06.543845 (bioRxiv, 2023).
# T1: Mycobacterium tuberculosis NrdI (Mycobacterium tuberculosis, UniProt P9WIZ3)
# T1 sequence: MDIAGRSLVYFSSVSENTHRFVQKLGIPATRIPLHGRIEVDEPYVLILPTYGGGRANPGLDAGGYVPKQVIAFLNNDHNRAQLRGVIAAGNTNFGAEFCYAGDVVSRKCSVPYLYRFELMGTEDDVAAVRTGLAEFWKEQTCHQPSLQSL
# B1: Mycobacterium tuberculosis NrdF2 (R2 subunit of the Class Ib ribonucleotide reductase) (enzyme)
# chain: TGNAKLIDRVSAINWNRLQDEKDAEVWDRLTGNFWLPEKVPVSNDIPSWGTLTAGEKQLTMRVFTGLTMLDTIQGTVGAVSLIPDALTPHEEAVLTNIAFMESVHAKSYSQIFSTLCSTAEIDDAFRWSEENRNLQRKAEIVLQYYRGDEPLKRKVASTLLESFLFYSGFYLPMYWSSRAKLTNTADMIRLIIRDEAVHGYYIGYKFQRGLALVDDVTRAELKDYTYELLFELYDNEVEYTQDLYDEVGLTEDVKKFLRYNANKALMNLGYEALFPRDETDVNPAILSALSPNADENHDFFSGSGSSYVIGKAVVTEDDDWDF
# What was measured:
# [1] = target: the molecule itself; assay: crystal structure
# [2] = target: T1, Mycobacterium tuberculosis NrdI; assay: crystal structure
binder,measurement,setting,value
B1,stoichiometry N,[1],2
same,stoichiometry N,[2],2 NrdF2 per NrdI
